In IntAct's records for PubMed 20890305:

Target: MAP3K11 (UniProt Q16584)
Sequence (Q16584 whole entry, looked up): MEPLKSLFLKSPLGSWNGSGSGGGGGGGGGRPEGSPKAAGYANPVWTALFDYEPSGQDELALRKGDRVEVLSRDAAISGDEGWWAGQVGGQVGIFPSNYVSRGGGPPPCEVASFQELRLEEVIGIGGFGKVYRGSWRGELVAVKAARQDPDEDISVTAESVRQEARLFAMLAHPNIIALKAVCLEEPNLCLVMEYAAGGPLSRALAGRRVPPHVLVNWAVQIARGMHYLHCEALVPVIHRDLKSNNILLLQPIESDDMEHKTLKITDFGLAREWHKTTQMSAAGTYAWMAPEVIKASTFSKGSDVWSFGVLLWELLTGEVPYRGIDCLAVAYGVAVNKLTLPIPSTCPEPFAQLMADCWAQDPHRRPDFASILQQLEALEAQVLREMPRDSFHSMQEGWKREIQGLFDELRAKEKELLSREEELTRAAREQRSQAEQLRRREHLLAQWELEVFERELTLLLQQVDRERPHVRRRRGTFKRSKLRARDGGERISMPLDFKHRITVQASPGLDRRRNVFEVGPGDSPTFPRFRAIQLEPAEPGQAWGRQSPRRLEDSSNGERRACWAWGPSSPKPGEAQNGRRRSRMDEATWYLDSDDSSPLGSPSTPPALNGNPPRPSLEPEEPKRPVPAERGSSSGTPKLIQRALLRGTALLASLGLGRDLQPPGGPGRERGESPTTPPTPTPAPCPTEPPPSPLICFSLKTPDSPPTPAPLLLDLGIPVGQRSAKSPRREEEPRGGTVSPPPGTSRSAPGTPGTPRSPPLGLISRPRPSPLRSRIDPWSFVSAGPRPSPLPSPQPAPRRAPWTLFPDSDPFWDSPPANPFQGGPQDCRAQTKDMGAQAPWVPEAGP

Chain of Cell division control protein 42 homolog (Homo sapiens), P60953 G12V (P60953 whole entry G12V): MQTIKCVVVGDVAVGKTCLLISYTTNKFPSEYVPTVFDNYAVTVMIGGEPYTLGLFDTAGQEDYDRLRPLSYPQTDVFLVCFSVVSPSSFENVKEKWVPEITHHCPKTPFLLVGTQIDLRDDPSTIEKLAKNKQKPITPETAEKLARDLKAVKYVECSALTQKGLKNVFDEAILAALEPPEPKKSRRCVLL
Chain of Cell division control protein 42 homolog (Homo sapiens), P60953 T17N (P60953 whole entry T17N): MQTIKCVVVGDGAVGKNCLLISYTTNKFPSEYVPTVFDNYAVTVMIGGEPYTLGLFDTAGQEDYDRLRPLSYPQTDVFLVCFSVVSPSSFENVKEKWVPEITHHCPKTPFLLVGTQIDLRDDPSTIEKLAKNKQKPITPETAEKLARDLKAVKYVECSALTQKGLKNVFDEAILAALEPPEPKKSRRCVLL

effect of a mutation on the interaction	Substance
decreasing interaction	Cell division control protein 42 homolog (Homo sapiens), P60953 G12V
disrupting interaction	Cell division control protein 42 homolog (Homo sapiens), P60953 T17N
